Our source for the Kd and koff values is patent US20140302035A1 (MERRIMACK PHARMACEUTICALS, published 2014).

The target of the assay is T1, Human EpCAM-Fc-his tagged (human).
T1 construct: also called Recombinant polyhistidine-tagged EpCAM-Fc; recombinant EpCAM
Briefly: BLI (ForteBio Octet), antibody loaded on Protein A tips, recombinant polyhistidine-tagged EpCAM-Fc in solution, 1:1 model. The protocol: For Octet analysis, all reagents and samples are brought to room temperature. Protein A sensor tips (ForteBio, #18-5010) are hydrated for 10 minutes in 1×PBS. Assay steps include: 1-2 minutes of equilibration in 1×PBS, 4 minutes of antibody loading (concentration of 50 μg/ml in 1×PBS), 1-2 minutes of baseline stabilization, 4 minutes of antibody:antigen association, and 4 minutes of antibody:antigen dissociation. 1×PBS is used as the matrix throughout. Data are analyzed with Octet Data Analysis software, processed, and fit to a 1:1 binding model to determine kinetic parameters (Kd, kₒₙ and kdiss).
Table A-2 describes approximate EpCAM binding affinity and dissociation rate as determined for Ab#1, Ab#2, Ab#3, Ab#4, Ab#5, Ab#6, Ab#7, Ab#8, Ab#9, Ab#10, Ab#11, Ab#12, and Ab#13.

T1 sequence (chain, as listed by the source): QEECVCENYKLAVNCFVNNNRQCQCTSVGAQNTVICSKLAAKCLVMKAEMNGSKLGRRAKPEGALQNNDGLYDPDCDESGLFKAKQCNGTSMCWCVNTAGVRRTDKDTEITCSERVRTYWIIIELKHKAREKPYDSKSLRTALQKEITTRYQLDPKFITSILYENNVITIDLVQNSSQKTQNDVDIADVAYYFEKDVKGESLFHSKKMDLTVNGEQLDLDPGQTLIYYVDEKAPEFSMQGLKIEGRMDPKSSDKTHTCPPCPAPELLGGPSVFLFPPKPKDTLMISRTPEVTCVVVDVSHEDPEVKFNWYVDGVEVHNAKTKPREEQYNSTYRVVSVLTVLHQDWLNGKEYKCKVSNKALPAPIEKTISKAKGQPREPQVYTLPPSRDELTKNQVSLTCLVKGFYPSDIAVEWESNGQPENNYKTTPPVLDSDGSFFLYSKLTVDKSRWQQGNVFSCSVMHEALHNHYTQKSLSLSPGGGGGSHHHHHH

B1: Ab#8 (bispecific antibody, human IgG1, kappa)
heavy: QLQLQESGPGLVKPSETLSLTCTVSGGSISSSVYYWSWIRQPPGKGLEWIGVIYPSGNTYYSPSLKSRVTISVDTSKNQFSLKLSSVTAADTAVYYCARTIYDLFDIWGQGTMVTVSSASTKGPSVFPLAPSSKSTSGGTAALGCLVKDYFPEPVTVSWNSGALTSGVHTFPAVLQSSGLYSLSSVVTVPSSSLGTQTYICNVNHKPSNTKVDKKVEPKSCDKTHTCPSCPAPEFLGGPSVFLFPPKPKDTLMISRTPEVTCVVVDVSQEDPEVQFNWYVDGVEVHNAKTKPREEQFNSKYRVVSVLTVLHQDWLNGKEYKCKVSNKGLPSSIEKTISKAKGQPREPQVYTLPPSREEMTKNQVSLSCAVKGFYPSDIAVEWESNGQPENNYKTTPPVLDSDGSFFLVSKLTVDKSRWQQGNVFSCSVMHEALHNHYTQKSLSLSKSCDKTGGGGSGGGGSGGGGSGGGGSGGGGSGGGGSGGGGSGGGGSCPSCPAPEFLGGPSVFLFPPKPKDTLMISRTPEVTCVVVDVSQEDPEVQFNWYVDGVEVHNAKTKPREEQFNSDYRVVSVLTVLHQDWLNGKEYKCKVSNKGLPSSIEKTISKAKGQPREPQVYTLPPSREEMTKNQVSLWCLVKGFYPSDIAVEWESNGQPENNYKTTPPVLDSDGSFFLYSKLTVDKSRWQQGNVFSCSVMHEALHNHYTQKSLSLSGECGGGGSGGGGSQVQLVQSGAEVKKPGESVKISCKASGYTFTNYGMNWVRQAPGQGLKWMGWINTYTGESTYADDFKGRFAFSLDTSASTAYLQLSSLRSEDTAVYFCARFAIKGDYWGQGTLVTVSSASTGGGGSGGGGSGGGGSGGGGSDIVMTQSPLSLPVTPGEPASISCRSTKSLLHSDGITYLYWYLQKPGQSPQLLIYQMSNLASGVPDRFSSSGSGTDFTLKISRVEAEDEGVYYCAQNLEIPRTFGGGTKLEIKRT
light: DIQMTQSPSSVSASVGDRVTITCRASQGISSWLAWYQQKPGKAPKLLIYAASSLQSGVPSRFSGSGSGTDFTLTISSLQPEDFATYYCLQANSFPPTFGGGTKVEIKRTVAAPSVFIFPPSDEQLKSGTASVVCLLNNFYPREAKVQWKVDNALQSGNSQESVTEQDSKDSTYSLSSTLTLSKADYEKHKVYACEVTHQGLSSPVTKSFNRGEC
notes: Anti-c-Met Fab / tandem Fc / anti-EpCAM scFv TFcBA; also called Antibody #8
Consider B1, for which the Kd worked out at 16.7 nM and the koff came out at 0.00098 s⁻¹.

B2: Ab#9 (bispecific antibody, human IgG1, kappa)
heavy: QLQLQESGPGLVKPSETLSLTCTVSGGSISSSVYYWSWIRQPPGKGLEWIGVIYPSGNTYYSPSLKSRVTISVDTSKNQFSLKLSSVTAADTAVYYCARTIYDLFDIWGQGTMVTVSSASTKGPSVFPLAPSSKSTSGGTAALGCLVKDYFPEPVTVSWNSGALTSGVHTFPAVLQSSGLYSLSSVVTVPSSSLGTQTYICNVNHKPSNTKVDKKVEPKSCDKTHTCPSCPAPEFLGGPSVFLFPPKPKDTLMISRTPEVTCVVVDVSQEDPEVQFNWYVDGVEVHNAKTKPREEQFNSKYRVVSVLTVLHQDWLNGKEYKCKVSNKGLPSSIEKTISKAKGQPREPQVYTLPPSREEMTKNQVSLSCAVKGFYPSDIAVEWESNGQPENNYKTTPPVLDSDGSFFLVSKLTVDKSRWQQGNVFSCSVMHEALHNHYTQKSLSLSKSCDKTGGGGSGGGGSGGGGSGGGGSGGGGSGGGGSGGGGSGGGGSCPSCPAPEFLGGPSVFLFPPKPKDTLMISRTPEVTCVVVDVSQEDPEVQFNWYVDGVEVHNAKTKPREEQFNSDYRVVSVLTVLHQDWLNGKEYKCKVSNKGLPSSIEKTISKAKGQPREPQVYTLPPSREEMTKNQVSLWCLVKGFYPSDIAVEWESNGQPENNYKTTPPVLDSDGSFFLYSKLTVDKSRWQQGNVFSCSVMHEALHNHYTQKSLSLSGECGGGGSGGGGSQVQLQQSGGGLVKPGESVKISCAASGYTFTNYGMNWVKQAPGKGLKWMGWINTYTGESTYADDFKGRFTFSLETSASAAYLQINSLRPEDTAVYFCARFAIKGDYWGQGTTVTVSSASTGGGGSGGGGSGGGGSGGGGSGDIVMTQSPSSLSASVGDKATITCRSTKSLLHSNGITYLYWYLQKPGKAPKLLIYQMSNLASGVPDRFSSSGSGTEFTLTISSVQPEDEGTYYCAQNLEIPRTFGQGTKLEIK
light: DIQMTQSPSSVSASVGDRVTITCRASQGISSWLAWYQQKPGKAPKLLIYAASSLQSGVPSRFSGSGSGTDFTLTISSLQPEDFATYYCLQANSFPPTFGGGTKVEIKRTVAAPSVFIFPPSDEQLKSGTASVVCLLNNFYPREAKVQWKVDNALQSGNSQESVTEQDSKDSTYSLSSTLTLSKADYEKHKVYACEVTHQGLSSPVTKSFNRGEC
notes: Anti-c-Met Fab / tandem Fc / anti-EpCAM scFv TFcBA; also called Antibody #9
For the molecule B2, the Kd was 10 nM and the koff was determined as 0.00043 s⁻¹.

B3: Ab#11 (bispecific antibody, human IgG1, kappa)
heavy: QLQLQESGPGLVKPSETLSLTCTVSGGSISSSVYYWSWIRQPPGKGLEWIGVIYPSGNTYYSPSLKSRVTISVDTSKNQFSLKLSSVTAADTAVYYCARTIYDLFDIWGQGTMVTVSSASTKGPSVFPLAPSSKSTSGGTAALGCLVKDYFPEPVTVSWNSGALTSGVHTFPAVLQSSGLYSLSSVVTVPSSSLGTQTYICNVNHKPSNTKVDKKVEPKSCDKTHTCPSCPAPEFLGGPSVFLFPPKPKDTLMISRTPEVTCVVVDVSQEDPEVQFNWYVDGVEVHNAKTKPREEQFNSKYRVVSVLTVLHQDWLNGKEYKCKVSNKGLPSSIEKTISKAKGQPREPQVYTLPPSREEMTKNQVSLSCAVKGFYPSDIAVEWESNGQPENNYKTTPPVLDSDGSFFLVSKLTVDKSRWQQGNVFSCSVMHEALHNHYTQKSLSLSKSCDKTGGGGSGGGGSGGGGSGGGGSGGGGSGGGGSGGGGSGGGGSCPSCPAPEFLGGPSVFLFPPKPKDTLMISRTPEVTCVVVDVSQEDPEVQFNWYVDGVEVHNAKTKPREEQFNSDYRVVSVLTVLHQDWLNGKEYKCKVSNKGLPSSIEKTISKAKGQPREPQVYTLPPSREEMTKNQVSLWCLVKGFYPSDIAVEWESNGQPENNYKTTPPVLDSDGSFFLYSKLTVDKSRWQQGNVFSCSVMHEALHNHYTQKSLSLSGECGGGGSGGGGSDIVMTQSPSSLSASVGDKATITCRSTKSLLHSNGITYLYWYLQKPGKAPKLLIYQMSNLASGVPDRFSSSGSGTEFTLTISSVQPEDEGTYYCAQNLEIPRTFGQGTKLEIKRTGGGGSGGGGSGGGGSGGGGSGQVQLQQSGGGLVKPGESVKISCAASGYTFTNYGMNWVKQAPGKGLKWMGWINTYTGESTYADDFKGRFTFSLETSASAAYLQINSLRPEDTAVYFCARFAIKGDYWGQGTTVTVSS
light: DIQMTQSPSSVSASVGDRVTITCRASQGISSWLAWYQQKPGKAPKLLIYAASSLQSGVPSRFSGSGSGTDFTLTISSLQPEDFATYYCLQANSFPPTFGGGTKVEIKRTVAAPSVFIFPPSDEQLKSGTASVVCLLNNFYPREAKVQWKVDNALQSGNSQESVTEQDSKDSTYSLSSTLTLSKADYEKHKVYACEVTHQGLSSPVTKSFNRGEC
notes: Anti-c-Met Fab / tandem Fc / anti-EpCAM scFv TFcBA; also called Antibody #11
With B3, the dissociation constant (Kd) is 4.57 nM and the koff is 0.000409 s⁻¹.

B4: Ab#10 (bispecific antibody, human IgG1, kappa)
heavy: QLQLQESGPGLVKPSETLSLTCTVSGGSISSSVYYWSWIRQPPGKGLEWIGVIYPSGNTYYSPSLKSRVTISVDTSKNQFSLKLSSVTAADTAVYYCARTIYDLFDIWGQGTMVTVSSASTKGPSVFPLAPSSKSTSGGTAALGCLVKDYFPEPVTVSWNSGALTSGVHTFPAVLQSSGLYSLSSVVTVPSSSLGTQTYICNVNHKPSNTKVDKKVEPKSCDKTHTCPSCPAPEFLGGPSVFLFPPKPKDTLMISRTPEVTCVVVDVSQEDPEVQFNWYVDGVEVHNAKTKPREEQFNSKYRVVSVLTVLHQDWLNGKEYKCKVSNKGLPSSIEKTISKAKGQPREPQVYTLPPSREEMTKNQVSLSCAVKGFYPSDIAVEWESNGQPENNYKTTPPVLDSDGSFFLVSKLTVDKSRWQQGNVFSCSVMHEALHNHYTQKSLSLSKSCDKTGGGGSGGGGSGGGGSGGGGSGGGGSGGGGSGGGGSGGGGSCPSCPAPEFLGGPSVFLFPPKPKDTLMISRTPEVTCVVVDVSQEDPEVQFNWYVDGVEVHNAKTKPREEQFNSDYRVVSVLTVLHQDWLNGKEYKCKVSNKGLPSSIEKTISKAKGQPREPQVYTLPPSREEMTKNQVSLWCLVKGFYPSDIAVEWESNGQPENNYKTTPPVLDSDGSFFLYSKLTVDKSRWQQGNVFSCSVMHEALHNHYTQKSLSLSGECGGGGSGGGGSQVQLQQSGGGLVKPGESVKISCAASGYTFTNYGMNWVKQAPGKGLKWMGWINTYTGESTYADDFKGRFTFSLETSASAAYLQINSLRPEDTAVYFCARFAIKGDYWGQGTTVTVSSASTGGGGSGGGGSGGGGSGGGGSGDIVMTQSPSSLSASVGDKATITCRSTKSLLHSDGITYLYWYLQKPGKAPKLLIYQLSNLASGVPDRFSSSGSGTEFTLTISSVQPEDEGTYYCAQNLEIPRTFGQGTKLEIK
light: DIQMTQSPSSVSASVGDRVTITCRASQGISSWLAWYQQKPGKAPKLLIYAASSLQSGVPSRFSGSGSGTDFTLTISSLQPEDFATYYCLQANSFPPTFGGGTKVEIKRTVAAPSVFIFPPSDEQLKSGTASVVCLLNNFYPREAKVQWKVDNALQSGNSQESVTEQDSKDSTYSLSSTLTLSKADYEKHKVYACEVTHQGLSSPVTKSFNRGEC
notes: Anti-c-Met Fab / tandem Fc / anti-EpCAM scFv TFcBA; also called Antibody #10
As to B4, the Kd came to 26.2 nM and the koff was 0.00211 s⁻¹.
